Target: Full-length human DDB1 (human, UniProt Q16531 1-1140)
Assay: crystal structure

Sequence of Full-length human DDB1 (Q16531 whole entry): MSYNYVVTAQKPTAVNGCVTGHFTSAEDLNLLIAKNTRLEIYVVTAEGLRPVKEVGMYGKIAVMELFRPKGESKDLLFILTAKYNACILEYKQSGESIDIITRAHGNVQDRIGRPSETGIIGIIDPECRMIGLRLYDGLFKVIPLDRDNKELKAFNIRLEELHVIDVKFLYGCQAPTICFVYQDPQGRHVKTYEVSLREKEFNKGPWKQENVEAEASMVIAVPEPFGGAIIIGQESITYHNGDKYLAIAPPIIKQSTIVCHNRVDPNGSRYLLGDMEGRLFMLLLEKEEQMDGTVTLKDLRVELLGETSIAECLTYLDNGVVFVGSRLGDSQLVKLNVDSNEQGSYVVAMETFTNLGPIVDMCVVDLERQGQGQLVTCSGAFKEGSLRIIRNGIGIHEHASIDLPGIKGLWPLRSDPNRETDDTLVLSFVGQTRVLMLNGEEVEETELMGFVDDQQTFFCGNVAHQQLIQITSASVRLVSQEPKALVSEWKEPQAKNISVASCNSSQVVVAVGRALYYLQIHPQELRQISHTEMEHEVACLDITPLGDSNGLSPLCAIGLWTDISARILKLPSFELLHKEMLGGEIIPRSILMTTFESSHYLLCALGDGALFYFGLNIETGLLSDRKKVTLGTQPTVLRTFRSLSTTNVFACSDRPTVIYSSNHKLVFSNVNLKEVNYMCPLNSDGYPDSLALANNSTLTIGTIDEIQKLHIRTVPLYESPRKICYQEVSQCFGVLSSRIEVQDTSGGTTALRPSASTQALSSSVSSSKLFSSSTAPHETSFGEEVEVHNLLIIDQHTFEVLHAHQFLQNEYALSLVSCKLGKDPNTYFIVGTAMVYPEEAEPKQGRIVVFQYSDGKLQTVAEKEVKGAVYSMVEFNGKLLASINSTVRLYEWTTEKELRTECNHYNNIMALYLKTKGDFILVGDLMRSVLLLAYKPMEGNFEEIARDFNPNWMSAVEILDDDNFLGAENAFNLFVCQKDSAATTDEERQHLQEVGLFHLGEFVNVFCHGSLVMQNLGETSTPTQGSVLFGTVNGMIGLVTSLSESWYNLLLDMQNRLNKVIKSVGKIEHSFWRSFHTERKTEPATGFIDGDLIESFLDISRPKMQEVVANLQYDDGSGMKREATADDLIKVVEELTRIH

B1: DCAF9 peptide (amino acids 5 to 17 of DCAF9/WDTC1) (peptide, UniProt Q8N5D0 5-17, looked up)
peptide: NITRDLIRRQIKE
- binding result: binds

— publication PMC2823288 (Nature structural & molecular biology, 2009)
